Molecular target: T1, 2019-nCoV N protein antigen (2019-nCoV (novel coronavirus), UniProt P0DTC9 1-419)
T1 construct: Coated on plates in ELISA; in solution in the AMC sensor assay; also called N protein of the novel coronavirus; nucleocapsid protein (N protein)
Test: AMC sensor kinetics, antibody captured
Method: Operational process: equilibrium was performed in buffer 1 (PBST) for 60 s, the antibody was cured in an antibody solution for 300 s, incubation was performed in buffer 2 (PBST) for 180 s, binding was performed in an antigen solution for 420 s, dissociation was performed in buffer 2 for 1200 s, sensor regeneration was performed with a 10 mM pH 1.69 GLY solution and buffer 3, and data were outputted. KD represents an equilibrium dissociation constant, that was, the affinity; kon represents the binding rate; and kdis represents the dissociation rate.

B1: WT (antibody, mouse IgG1, kappa, V domains shown)
VH: DVQLVESGGGLVQPGGSRKLSCAASGVTFSTFAMHWVRQAPEKGLEWVAYLNSASNLIYYADTLKGRFTISRDNPKNTLFLQMTSLRSEDTAMYYCTRHAMDYWGQGTSVTVSS
VL: DIVLTQSPASLAVSLGQRATISCKASQSIDYDGDSFMNWFQQKPGQPPKLLIYDASNVESGIPARFSGSGSGTDFTLNIHPVEEEDAATYYCQHSNEDPYTFGGGTKLEIKR
notes: also called VT; antibody in Embodiment 1
Binder B1 has a Kd of 8.03 nM, a koff of 0.00141 s⁻¹ and a kon of 175000 M⁻¹ s⁻¹.
